Reference: paper PMC2367731 (Nucleic Acids Research, 2008)

What was measured:
[1] = biological target: His6-tagged H3.1/H4 complex (human, UniProt P68431;P62805); assay: pull-down
[2] = biological target: His6-tagged H3t/H4 complex (human, UniProt Q16695;P62805); assay: pull-down
[3] = biological target: T1, H3t/H4 complex (His6 tags removed) (human, UniProt Q16695;P62805); assay: native gel or EMSA
[4] = biological target: T2, H3.1/H4 complex (His6 tags removed) (human, UniProt P68431;P62805); assay: native gel or EMSA
[5] = biological target: T1, H3t/H4 complex (His6 tags removed); assay: pull-down
[6] = biological target: T2, H3.1/H4 complex (His6 tags removed); assay: pull-down

B1: human Nap2, His6 tag removed (natural protein)
chain: MADHSFSDGVPSDSVEAAKNASNTEKLTDQVMQNPRVLAALQERLDNVPHTPSSYIETLPKAVKRRINALKQLQVRCAHIEAKFYEEVHDLERKYAALYQPLFDKRREFITGDVEPTDAESEWHSENEEEEKLAGDMKSKVVVTEKAAATAEEPDPKGIPEFWFTIFRNVDMLSELVQEYDEPILKHLQDIKVKFSDPGQPMSFVLEFHFEPNDYFTNSVLTKTYKMKSEPDKADPFSFEGPEIVDCDGCTIDWKKGKNVTVKTIKKKQKHKGRGTVRTITKQVPNESFFNFFNPLKASGDGESLDEDSEFTLASDFEIGHFFRERIVPRAVLYFTGEAIEDDDNFEEGEEGEEEELEGDEEGEDEDDAEINPKV
- binding result [1]: binds
- binding result [2]: binds

B2: human Nap1 (nucleosome assembly protein 1), His6 tag removed (natural protein)
chain: MADIDNKEQSELDQDLDDVEEVEEEETGEETKLKARQLTVQMMQNPQILAALQERLDGLVETPTGYIESLPRVVKRRVNALKNLQVKCAQIEAKFYEEVHDLERKYAVLYQPLFDKRFEIINAIYEPTEEECEWKPDEEDEISEELKEKAKIEDEKKDEEKEDPKGIPEFWLTVFKNVDLLSDMVQEHDEPILKHLKDIKVKFSDAGQPMSFVLEFHFEPNEYFTNEVLTKTYRMRSEPDDSDPFSFDGPEIMGCTGCQIDWKKGKNVTLKTIKKKQKHKGRGTVRTVTKTVSNDSFFNFFAPPEVPESGDLDDDAEAILAADFEIGHFLRERIIPRSVLYFTGEAIEDDDDDYDEEGEEADEEGEEEGDEENDPDYDPKKDQNPAECKQQ
- binding result [3]: binds
- binding result [4]: binds
- binding result [1]: binds
- binding result [2]: binds

B3: His6-tagged human Nap2 (natural protein)
chain: B1 chain
- binding result [5]: binds
- binding result [6]: binds

B4: His6-tagged human Nap1 (natural protein)
chain: B2 chain
- binding result [5]: binds
- binding result [6]: binds
